According to the RNAGym collection of RNA variant scans (doi:10.1021/acssynbio.7b00057):

B1: Pistol ribozyme (parent)
chain: GGGUCGUUGUUCCAUAAUCGCGUGGAUAUGGCACGCAAGUUUCUACCGGGCACCGUAAAUGUCCGACUGGAGCCGUUCGGGCGGCUAUAAACAGACCUCAGGCCCGAAGCGUGGCGGCACCUGCCGCCGGUGGUAAAAAAGAUCGGAAGAGCACACGUCU

Variants of: B1
Assay: aptazyme ON/OFF ratio, guanine; higher = stronger switching; co-transcriptional cleavage with and without guanine

Point of comparison: U7A U8C G9U U10G C12G C13U, “aptazyme ON/OFF ratio” value 1.28. Against it:
- U8A G9U U11C C12G C13U — lower, 1.16
- U7C U8G G9A U10G U11A C12G C13A — lower, 1.26
- U8G G9A U10G U11C C13A — lower, 1.06
- U7G U8A G9C U10G U11G C12A — lower, 1.08
- U7C U8A U10A — lower, 1.1
- U7C U8G G9U U10A U11G C12U — lower, 1.19
- U7C U8C G9C U11C C13A — the same, 1.28
- U7A U8A G9U U10C C12A — lower, 1.17
- U7A U8G G9U U10G U11G C12G C13A — lower, 1.16
- U7C U8G G9U U10A U11A C13U — lower, 1.22
- U7C U8G U10G U11A C12G C13U — lower, 1.14
- U7A G9A U10A U11G C13G — lower, 1.11
- U8C G9U U10A U11C C12G C13A — lower, 1.25
- U7C U10C — higher, 1.92
- G9C U10A U11G C12G C13U — lower, 1.16
- U7G U8A U10C U11C C12U — higher, 1.31
- U8A G9U U10G C12U C13G — lower, 1.27
- U7A U8G G9A U10A U11C — lower, 1.03
- U7G U8A G9C C12U C13U — lower, 1.03
- U7G U8A G9U U11A C13U — lower, 1.11
- U7C G9A U11C C12U C13G — lower, 1.02
- U7G U8A G9C U10G U11A C12G — lower, 1.06
- U7G U8A G9A U10A U11G C12U C13U — lower, 1.15
- U7A U8A G9U U10C U11G C12U C13U — lower, 1.22
- U7C U8A U11C C12A C13U — lower, 1.25
- U7G U8A G9C U10A U11A C12A C13G — lower, 1.03
- U7G U8G U10A U11A C13U — higher, 1.35
- G9A U11G C12G C13U — lower, 1.15
- U7C U10G C12G C13A — lower, 1.17
- U7C U8A U10G U11C C13U — lower, 1.05
- U7A U8C G9U U10A U11G C12U C13G — lower, 1.21
- U7A G9A U10C U11G C12G C13A — lower, 1.17
- U7A G9A U10C U11G C12G C13U — lower, 1.14
- U8G G9U U10G U11A C12A C13A — lower, 1.04
- U8A G9A U10C U11G — higher, 1.33
- U7G G9U U10G U11A C13G — lower, 1.16
- U7C U8A U10C C12U C13G — lower, 1.17
- G9A U10G C12G C13U — higher, 1.29
- G9U U11A C12A — higher, 2.63
- U8C G9U U10G U11C C12U C13A — lower, 1.19
- U8C U10A U11G C12A C13A — lower, 1.24
- U8C U10A U11G C12A C13G — lower, 1.26
- U7A U8A G9C U10C U11C C12G — lower, 1.05
- G9C U10C U11G C12A C13A — lower, 1.04
- U8A G9A C13G — lower, 1.12
- U7G U8A U10G U11A C12U C13A — higher, 1.37
- U7A U8C G9U C12U C13G — lower, 1.12
- U7G U8A G9A U10C U11A C12A C13G — lower, 1.07
- U7G U8A G9C U11C C12A — lower, 1.11
- U7C C12G C13G — lower, 1.17
- U7G U8G G9C U10C U11G C12G C13U — lower, 1.07
- U7C G9U U10C U11G C12G — lower, 1.1
- U7C G9U U10C U11G C12U — lower, 1.22
- U7C U8C U11A C13A — lower, 1.21
- U7A U10G U11G C12U C13U — lower, 1.2
- U7A U8A G9U U10G U11A C12U C13U — lower, 1.13
- U7A G9U U11C C12G C13G — lower, 1.12
- U7A U8C G9C U10C U11C C12U — lower, 0.94
- U7A G9C U11C C12G C13G — lower, 1.09
- U7C U8A U11C C12U C13A — higher, 1.31
- U8A G9C U10G U11C C12A C13G — lower, 1.12
- U8A G9A U10G U11G C12U C13U — lower, 1.2
- U7C U8C U11G C12A C13A — lower, 1.14
- U7G U8A U10A C13A — lower, 1.2
- U7G U8C G9U U10C C12G C13U — higher, 1.29
- U7C U8C G9U U11C C13U — lower, 1.02
- U7A U8A U10C U11A C13G — lower, 1.09
- U7G U8A G9U U10G U11C C12U C13U — lower, 1.08
- U7C U8C G9A U10G C12G C13U — lower, 1.16
- G9U U10G C12G C13G — higher, 1.41
- U8G U10C U11A C12G C13U — lower, 1.27
- U7C G9U U11G C12G C13U — lower, 1.1
- U7C U8G U10C U11G C12G C13A — lower, 1.09
- U7C U8A G9U C12A C13U — lower, 1.15
- U7C U8G G9U U10C U11G C13G — lower, 1.03
- U7G U8C G9U C12G — higher, 3.03
- U7C U8C G9U U10G U11A C13A — lower, 1.18
- U8C G9C U10C U11A C12A C13U — lower, 1.02
- U8A G9U U11G — higher, 1.63
- U7C U8C G9C U10A C12A C13G — lower, 1.14
- U7A U8C G9C C12U — lower, 1.06
- U7G U8A G9A U10A U11A C12A — lower, 1.18
- U7G G9U U11A C12A C13A — higher, 1.3
